A short description of data set [1]: In vitro prodrug release from TFV-PA hydrogels. The settings on record: day 30, in vitro. Format: physicochemical. The procedure:
To study gel release, 5 mM and 10 mM solutions of TFV-PA2 and TFV-PA3 were prepared using deionized water and allowed to age at RT for 48 hours. 45 μL of each solution was aliquoted into three 0.5 mL microcentrifuge tubes and 5 μL of 10× PBS was added to each vial to form a hydrogel with a final concentration of 1× PBS. Gels were allowed to set for 5-10 minutes before 60 μL of 1× PBS was added to the surface as the release media. The vials were then allowed to age at 37° C. Every 2 days, 50 μL of gel release supernatant was collected and replaced with an equal volume of fresh 1× PBS. Samples were frozen and stored at −20° C. for future analysis by RP-HPLC. On select days, 5 μL of release supernatant was collected 24 hours after supernatant exchange and used to prepare a negatively stained transmission electron microscope grid for analysis with the Talos transmission electron microscope. The grid was prepared as described above, except the sample was blotted with 5 μL deionized water (wicked immediately) after the sample was wicked away to remove excess salts from the PBS. Once the release experiment was complete, samples were thawed and 1-2 mg of TCEP was added to 25 μL sample solution and an equal volume of acetonitrile, then vortexed and sonicated at 37° C. for 10 minutes to ensure complete cleavage of the TFV moiety from the TFV-PAs. […]

Data set [2] in a line: Stability of TFV-PAs and redox triggered release of free TFV (with/without DTT). Format: in vitro ADME. Conditions: 37° C.; for prodrug stability without DTT: 100 μM in 1× PBS, absence of DTT; for TFV released: 100 μM, 10 mM DTT, 1× PBS. The procedure:
Stability of the TFV-PAs and redox triggered release of free TFV was assessed by aging TFV-PA solutions in the presence and absence of 10 mM dithiothreitol (DTT). 200 µM solutions of TFV-PA2 and TFV-PA3 solutions were prepared using deionized H2O and allowed to age at RT for 24 hours. A 20 mM solution of DTT was prepared by diluting a stock 1 M DTT solution with 2× phosphate buffered solution (PBS). 500 μL of 2× PBS was added to an equal volume of each TFV-PA solution to give the DTT negative samples with a final TFV-PA concentration of 100 μM in 1× PBS. 500 μL of 20 mM DTT solution was added to an equal volume of each TFV-PA solution to give the DTT positive samples with a final TFV-PA concentration of 100 μM and 10 mM DTT in 1× PBS. Each experimental condition was prepared in triplicate. Solutions were allowed to age at 37° C. and 50 μL samples were collected at predetermined time points (0, 1, 2, 4, 8, 12, 24, 48, and 72 h), flash frozen in liquid nitrogen, and then stored in a −20° C. freezer. 2 μL of hydrochloric acid was added to the DTT positive samples upon collection to quench the reaction. Samples were thawed and immediately analyzed using the Agilent Infinity II RP-HPLC. The relative proportions of remaining TFV-PA were determined using the ratio of the AUC of the TFV-PA peak in the 260 nm chromatograph to that of the 0 hour samples. For select samples, 1 μL of solution was diluted in 900 μL MeOH and 100 μL 0.1% aq. formic acid and subjected to ESI MS to identify the molecules in the sample.

The test system of the next data set is HBV. Type of data set: cell-based, hepatitis B virus. Conditions: HepAD38 cells, qPCR of cellular supernatant; FIG. 5 legend; read-out: IC50, reduction of HBV production. On the procedure: Anti-HBV efficacy was evaluated on HepAD38 cells, using an adaptation of a procedure described in Ladner, Antimicrob. Agents Chemother. 41: 1715-20, 1997, incorporated herein by reference. HepAD38 cells were plated on collagen coated 96-well flat-bottomed plates at a density of 6×10^4 cells/well and grown for 3 days in the presence of 200 μL of Ham's F-12K (Kaighn's) Medium supplemented with 10% fetal bovine serum (FBS), 1% of an antibiotic solution (penicillin and streptomycin), and 0.3 mg/mL tetracycline at 37° C. in 5% carbon dioxide. On day zero the cells were washed with PBS and treated with tetracycline-free F-12K medium containing TFV, TFV-PA2, or TFV-PA3 (180 μL of medium supplemented with 20 μL of 10× concentration therapeutic solution to give 200 μL of medium at the final therapeutic concentration). Each therapeutic was screened at a minimum of five concentrations in quadruplicate. Water treated cells (180 μL of medium supplemented with 20 μL of H2O) were used as the negative control. On day three the medium was removed and replaced with 200 μL of fresh tetracycline-free medium containing the test compound at the appropriate concentration. […] HBV DNA was quantified by qPCR, using Integrated DNA Technologies PrimeTime Gene Expression Master Mix (Integrated DNA Technologies, Coralville, IA) and HBV TaqMan primer/probe (20×, Assay ID Vi03453405_s1, ThermoFisher Scientific, Pittsburgh, PA). A serial dilution of gBlocks Gene Fragments (Integrated DNA Technologies, Coralville, IA) of known HBV copy number was used as the standard for the absolute quantification of DNA copy number from cycle threshold values. […] Percent HBV production for each therapeutic concentration was determined based on average number of copies of HBV DNA produced by water treated cells and averaged between the three biological repeats of the assay before being plotted against concentration. […]
Background: Quantitative PCR measures a nucleic acid by following its amplification.

Data set [3] in a line: In vivo pharmacokinetics and biodistribution. On the procedure:
Samples were dried under a N2 stream, reconstituted in 100 μl of 80% v/v LC-MS grade MeOH/H2O. 10 μl of the sample solution was injected into Waters Acquity/Xevo-G2 UPLC/MS system (Milford, MA) for analysis.
For tissue analysis, an optimized amount of tissue sample was processed using a tissue homogenizer in 5 volumes of 90% v/v LC/MS grade MeCN/H2O. 100 μL Tissue homogenate was mixed with 90 μL of 90% v/v LC/MS grade MeCN/H2O, 10 μL of LC-MS-grade water, and 10 μL 500 ng/ml Emtricitabine solution (as IS). After extraction, 10 μl of the sample solution was injected into Waters Acquity/Xevo-G2 UPLC/MS system (Milford, MA) for analysis.

The conditions of data set [4]: cited from earlier work.

Each structure is given as a SMILES string. pIC50: −log10 of the molar value. Residues, ends and D or L forms follow the SMILES beside them. *: point of attachment. X1 = C[C@H](Cn1cnc2c(N)ncnc21)OCP(=O)(O)OCCS*; Palmitoyl = CCCCCCCCCCCCCCCC(=O)*

By pIC50 is commonly meant −log10 of the IC50, conventionally taken in molar units. As for `CCCCCCCCCCCCCCCC(=O)N[C@H](C(=O)N[C@H](C(=O)N[C@H](C(=O)N[C@@H](CSSCCOP(=O)(O)CO[C@H](C)Cn1cnc2c(N)ncnc21)C(=O)N[C@@H](CCC(=O)O)C(=O)O)C(C)C)C(C)C)C(C)C` [TFV-PA3] (Palmitoyl-VVVC(X1)E-OH), the “initial prodrugs remaining in hydrogel” value in data set [1] is recorded as “more than 80%”. In addition, the “prodrug stability without DTT” value in data set [2] is “stable at 37 °C and in 1× PBS for 3 days”. For the same compound, the TFV released result in data set [2] (after 4 hours) is “more than 70%”; in data set [2] (by 24 hours) it was “all TFV released”. The pIC50 with HBV was 6.60.
On to `CCCCCCCCCCCCCCCC(=O)N[C@H](C(=O)N[C@H](C(=O)N[C@@H](CSSCCOP(=O)(O)CO[C@H](C)Cn1cnc2c(N)ncnc21)C(=O)N[C@@H](CCC(=O)O)C(=O)O)C(C)C)C(C)C` [TFV-PA2] (Palmitoyl-VVC(X1)E-OH), for which, in data set [2], the “prodrug stability without DTT” value was “stable at 37 °C and in 1× PBS for 3 days”. The TFV released entry in data set [2] (after 1 hour) was “more than 90%”; in data set [2] (by 24 hours) it was “all TFV released”. Further, the negative-log IC50 (pIC50) in the data set with HBV is 5.82.
By MRT is commonly meant the average time that molecules of a dose stay in the body. Consider `Nc1ccn([C@@H]2CS[C@H](CO)O2)c(=O)n1` [3TC, 2′,3′-Dideoxy-3′-Thiacytidine], for which the “drug levels after free drug administration” value in data set [3] (after three days, mice) is listed as “below detection”. Moreover, the MRT in data set [3] (male, Balb/cJ, mouse, in vivo, sc, 75 mg/kg) was 50.4 h.
Broadly, the log P is a log measure of how a compound divides between an organic and an aqueous phase. Regarding `C[C@H](Cn1cnc2c(N)ncnc21)OCP(=O)(O)O` [TFV, tenofovir, reference compound], in the data set with HBV, the pIC50 is 5.96. In data set [4], the “log P” value is −2.5.

These data come from patent publication US11998609B2, “Self-assembling antiviral prodrugs” (priority 2021, dated 2024).
